Experimental data as given in a protein production outcome set (Wang et al. 2014).

Assay: label from the status in PepcDB records

Sequence | protein production
MNNPQCSYTVRCFFLALLVNLFLPNILPRQLASAQDVPSEASSDAPDLGVVWTPSTAPDSALAALDRIAATGATAVRLTHLPADTTATTIATRADSLGLRLYVDLPMADGSAPRPDEARPQADASLDQLRSLANRHASITHVGLARGASTTGSRRCDRLRRWTERIHDASASLHTYYVTPFVPSADRCADAVDQPLLDLRGHPRPTDRWRAWRTRTDSVGIGALGTWTRPAAASGLRVPHSAERQARYLETTLSRLLDPTRAAPPVVFVARWQDDDASLLPSRRYGLHDAAGTPRPAATVVRGLYSGTQRTFAFPDGSAPAGTSGLVLVGWGLVAVLGLLYARSLFVRETAVRYFTTPGFYREALRDGREVSFGANSLLLGLVGGSLGVAAARMARLATAQPETERVLAALPRVVGTALAPGVEHPTLAGVAVGGGALVLLLLWTGAGVAMARLGTRFTVAQGLMLVTWPCWPVLLAPPVALAAGPNAPLSPSLSTLVLLGGGTLVLLSVTLRVLFDYWRVTDAPAWTLLPLAALSPLALVGASLLVAAQYGVSFSLLWRLAVYT | failed
MQEKIHWITNLRGIACMMVVMIHSTSWYITHPHAITLLQWDIANLLNSASRVSVPLFFMISGYLFFGERSAQPRHFWRIGLCIAFYSALSLLYITLFTHINVELSLKNLLQKPVFYHLWFFFAITVIYLLSPLLQVKSTSSTMLLALMAILGILANPNMVSVKAAGIEWLPVNLYINGDTFYYVLYGVLGRAIGTLDTDKKWLTPLCAALFIAAVWVISRGTLHELRWRGDFGDTWYLYCGPAVFVCAVTLLTLAKNWLNARPLPGIACIARHSLGIYGFHALIVHALRASHLELSRWPLLDIVWIFSAALLGSLLLSGLVQRIDSRRLVS | failed
MNNRGAVTDMISQLPEPLILQILGSLPTKVAITTSVLSKQWQSHWKMMPKLEFDSFLRRLDLENVTKCLLSHKAPVLQTFSLKVRLDRRNNAVDIGCLIGIAMTRNVRKLVLEVYFHRGTFTFPRSLYHCETLETLELILNVVMDVPPSVYLKSLKTLYLLAVDFKDDESVINLLSGCPNLQDLVMRRNSSSNVKTFTIAVPSLQRLAIHNGSGTPQHCGYTINTPSLKYLKLEGSKAFESFMVENVSELIEVNITDVSEIIDEKLRVFLTSVTRLSLALSPSVFTFPTGIIFNQLVYLEICTNKTSWWKLLPLMLHSSPKLQVLKLIDDTDGMNYVEASGEWNQPKNVPECLHHLEKFIWEGYKWKREEIEVAKYILKNTNRLKRAIFSLKGISSEDRLVVVEDLKSVVMATTNSCQFQFI | failed
MLFEASLVAVWAFFCGIDKYDVALNIHRPLITGPVVGLIMGDMQIGLIAGATLELAWLGLVPNAGAQPPDVTMGTIAAVAFAVMTGQSPEVAMGVGMPIAVLMQMLVIGFFAMTSFTMGKADKYAEEANTNGIDFLLLSTITMRSMLYAVIAFLTVYFGEHGAAWIDANAPKTLLEGLGIGAKMVPAIGFAMLLKIMWSKEVAGVFFIGFVMTTYLQLPIMAVAILGASAAALYYFFSGNGNKNSNQEFEDFEDGI | failed
MATLKVSDSVPAPSDDAEQLRTAFEGWGTNEDLIISILAHRSAEQRKVIRQAYHETYGEDLLKTLDKELSNDFERAILLWTLEPGERDALLANEATKRWTSSNQVLMEVACTRTSTQLLHARQAYHARYKKSLEEDVAHHTTGDFRKLLVSLVTSYRYEGDEVNMTLAKQEAKLVHEKIKDKHYNDEDVIRILSTRSKAQINATFNRYQDDHGEEILKSLEEGDDDDKFLALLRSTIQCLTRPELYFVDVLRSAINKTGTDEGALTRIVTTRAEIDLKVIGEEYQRRNSIPLEKAITKDTRGDYEKMLVALLGEDDA | not failed
MTAAPLVSVLLPVYNAGPYLAAALGSILRQDYGRLEVIAIDDGSSDNSLEILERYRQADSRVSIISRENRGLVATLNEGLAAAQGELVARMDADDVAYPWRLSRQVALFEQRPELGFCGAGVDMLIRGRIARGRPDPVFRFGRMPILAMFFTIFMHPTVVYNRKVIEDADLHYDPTYRHAEDFDLFGRLAARYPAAMMPENLLVYRVHQASVTSRHGKEMRRTHLRIVAENLEREGLAEATRDLRDIGEAVSFDTVTRAADFIVALEERIRSLPAETRPSFEAGALNLFYFLYQLVADERQPPLTHELLRRTAKWNAIRRREKYALRPGAWAPWLSLASLAAGKQADAVEYFFKSAPAAAVLASHQVG | failed
MNHNYVEVKYPAIFRDEGTYWDVRFPDVPAAQTFGASVQVAADNAANALAIALFEQSLPPASDPQYWRLASTEFVVWITMADVQFGPGADTPEPMN | not failed
VAASWREQFIRAEQTHWDAVTETASETYWEGGVLSDVTALAPDPATLFISNSMPIRDMDRFGGPRDADLTVLGNRGASGIDGITSTALGAGSATSDPLVLVTGDLAYYHDMNGLLALGRCAVDATVVLLNNDGGGIFHMLPIEDHPTFEDQFRTPHGLDFEPTEALYSLQFERVADRRQFRERFAESVQTDGTQVIEVRFDAGDSHAVRDQLTE | failed
MDDSKSSYKLGLFVVSALVSLFVVLFILGGRSLFEPKIIVETYFDESVSGLEVGAPVRFRGITAGEVVSIELSDALYEAAVPRENRKSYVVVRSEITGAKRTIEEWNRSIEISIERGLRATTQLAGITGQQYLSFDYTSMDEGLSFNWKPNYPYVPSTKSSAGKIVSGIQSLIARLDEADINTLVANINMLIETLNQSISALDADALNAQLLALLINSNQMVKSVDGVISDPEVKEIVSSLAQISKSLNSSLKDKGDINKLIKHLDRAAVRLDVIMADNQSDINYVIKDLRVTVENLKSFSETLKNQPSSIIFSSEPEKLKIN | failed
MTLSTINPMKKSRIDNIHHTQILFFSDENQIDQEAPYYDALLDLEKDYPEQIDKMKVYDKKEGWEDEIETVPTLMVVDQRHVVVKIEGCVKKKEDIIKPLQHVLSKLEHHHHHH | not failed
MEDEIKSFAKDRKLIIEDSKNSKNNIVEVQKAIETLKDEKNAKNVVVDFTEYNPLHNGHKYCMDFGKREGLFISVIPGPLERSGRGIPYLVNRYIRSEMALLAGADLVVEGPPMGIMGSGQYMQCLIKIFSALNGDIIPRGYIEEETMEKVINSINNKNHIKIKPYNISCIETGEKFGEKLEIDNYVIASMSYTIYKLKENFPEWKPKFKFIERIEGISGTKIREGVFNNNFESIKHMLPETTLNVFKSFENNLSEIILKRNEQMVLDTVNNFDLSKYLPENISEKLNEKEYYKSIEEIKECIPRGFSKNNIERTISKLEARIEKETISKYIENYPANLKILKGINNNE | failed
MPIPQATADAFCALTGDDQWIHIDPARAEAEGLAGGDTVLPGALLLSLAVGGLGKALGYPEGTRSWQRSYERVRFLRPAPVGSRLRLEARESRRRPAGTGREVVVANVSLYSDLVEAGPVMEGCFTSLLEVAVQPLEHHHHHH | failed
MTNVLYQHGTLGTLMAGLLEGTATINELLEHGNLGIATLTGSDGEVIFLDGKAYHANEHKEFIELKGDEKVPYASITNFKASKTFPLQQLSQDDVFAQIKNEMLSENLFSAVKIYGTFKHMHVRMMPAQQPPYTRLIDSARRQPEEKRQDIRGAIVGFFTPELFHGVGSAGFHIHFADDERAYGGHVLDFEVDDVVVEIQNFETFQQHFPVNNETFVKAKIDYKDVAEEIREAE | not failed
MSPPARKLDPWTLLLWLGLAAVSLVALYSTTHGPAAEYIGPGVQDNFARQFLWIGVSIAGIAATLLVPVRFLRYAAYPAYAATLVLLVLCLVMGVEVHGTRAWLALGPLRLQVSELAKVGTVLAVAQLLSERHTRAGQDLSFALKAAGLIVAPALLVILQNDLGTALVFFGLVPIMLFWSGLSLSVLLLMVSPAIAGYFALVSTPAALGFAVLFTGGLWAYSGRRSIAALAATFTAGVTALISFVLRKILQPYQVDRLLSFTNPGAEQFRQGVGFHLVQSKAALYSGGIWGTGFMQGPQTQGAYVPEQTTDFIFSVVAEEFGLVGSLVVLGLLAALLLRLIKLGADVKHPFGSIVAAGAVGVYLIHIFINIGMVTGMLPVIGLPLPFLSYGGSAMLANTALLAIVLNTHMRREDLSIYGY | failed
MHIAIIGDQAATRQATTQLLSQLTTPTQPLQVTAYPTAEAFLFADQPADLLLLDIKLGSGMDGMTLAKQIREHDAATAIAFVSNYDEFVFDGYDVNALDYVIKPITSDKLQHLISKVAAQTQPKLLVFTTANGIQRVAMYDISAIEVTDHRLQVHTQKMTYTVAGQLKEFLPQLDENFIQIYRSIVINLNFLSQLEKNTVVMADGTSYPVSRQQAPLVKQAFFKHFRGLAHDSELEHHHHHH | failed
MAKPGFRLALFATLLALIVVLLGAYTRLTHAGLGCPDWPGCYGFISVPKGEAQLAHAELHFPDTPVEAHKGWNEMIHRYFAGTLGLLIVLLAARAWTHRRHPGQPLKLPLFLLAVVFAQAAFGMWTVTLKLWPQVVTAHLLGGFATLSLLFLLTLRLSGVLPALIVPRRLQYWATAGLVLVIGQIALGGWVSSNYAAVACIDLPTCHGQWWPNMDFANGFHLTQHIGPNYLGGQLDSDARTAIHMTHRVGAVLVTLVLLGLAWQLRQTGMTRLAGLVLVALGAQVSLGLSNVFFHLPLPVAVAHNAGGAALLLTLVLVNYHARTSLVRARDRLPLGWRLSPRKQMAGPITIKGEMPWRL | failed
MESRWNDEDAARFVEAARAEGQSEALGLRIYTSRLIGSDPDLVLHGGGNTSVKIRSDEGEQLMHIKGSGWDLDTIEAPGLPAVRLASLLEARNTPKLSDPDMVLLLRASLIEKDAPNPSVEALLHAFIPFDYVDHTHATAVLALADQPNMRDAIRRIYGDRLAYVPYVMPGFDLSIAADRIYRSHSDCEGLWLENHGLFSFANDARASYDLMIEFVTLAEQELARAGVALSGPQPNDGER | failed
LDKMSKKTRQAIRTSKNKGVDIQFGSHELLEDFAELMKKTEDRKGINLRGIDYYQKLLDTYPNNSYITMASLDVAKRLEKIEKECQIAQSERIKSLELNREKKVKQHQGTIDRLNKEIDFLKEAQKAYDRDIIPLAATLTLEFGNTSENIYAGMDDYFKSYSAPIYTWFETAQRAFERGNIWQNMGGIENDLSGGLYHFKSKFEPII | failed
MTRDLAPALQALSPLLGSWAGRGAGKYPTIRPFEYLEEVVFAHVGKPFLTYTQQTRAVADGKPLHSETGYLRVCRPGCVELVLAHPSGITEIEVGTYSVTGDVIELELSTRADGSIGLAPTAKEVTALDRSYRIDGDELSYSLQMRAVGQPLQDHLAAVLHRQR | not failed
GGGTRFALVAGTTETAGRAGISAAGADPELMSVTPAADAELVTYGTPVRTDVTPVSPSGCPTPALVTRAAREVLGFDVTVVDGGLAEKTGAPTVSVGARPGKDIAEQDPVSTAHGAFAAARQFGQSLPADELYLGETIPGGTTTALGVLRALGEDGMVSSSLPENPTAQKSEVVAEGLQASSLEPGDAANEPKRAVRRMGDPVLATLAGLTAGAVESDTAVTLAGGSQCVAVAALVRHGGYEGPLGLATTSYVADDESADVRASVDRLDLDLTVTDPGFDRSDHVAMERFVAGEAKEGVGMGGALALADRAGI | failed
MGTPGEGLGRCSHALIRGVPESLASGEGAGAGLPALDLAKAQREHGVLGGKLRQRLGLQLLELPPEESLPLGPLLGDTAVIQGDTALITRPWSPARRPEVDGVRKALQDLGLRIVEIGDENATLDGTDVLFTGREFFVGLSKWTNHRGAEIVADTFRDFAVSTVPVSGPSHLRGLCGMGGPRTVVAGSSDAAQKAVRAMAVLTDHPYASLTLPDDAAADCLFLRPGLPGVPPFLLHRGGGDLPNSQEALQKLSDVTLVPVSCSELEKAGAGLSSLCLVLSTRPHS | failed
